Results taken from article PMC3378326 (Structure(London, England:1993), 2012).

B1: D1-D2-D3^ΔAB (FGFR1c) (domain or fragment)
chain: RPSPTLPEQAQPWGAPVEVESFLVHPGDLLQLRCRLRDDVQSINWLRDGVQLAESNRTRITGEEVEVQDSVPADSGLYACVTSSPSGSDTTYFSVNVSDALPSSKETDNTKPNRMPVAPYWTSPEKMEKKLHAVPAAKTVKFKCPSSGTPNPTLRWLKNGKEFKPDHRIGGYKVRYATWSIIMDSVVPSDKGNYTCIVENEYGSINHTYQLDVVERSPHRPILQAGLPANKTVALGSNVEFMCKVYSDPQPHIQWLKHIEVNGSKIGPDNLPYVQILKTAGVNTTDKEMEVLHLRNVSFEDAGEYTCLAGNSIGLSHHSAWLTVLEALEERPAVMTSPLYLE
B2: D1-AB13ALA-D2-D3 (FGFR1c) (domain or fragment)
chain: RPSPTLPEQAQPWGAPVEVESFLVHPGDLLQLRCRLRDDVQSINWLRDGVQLAESNRTRITGEEVEVQDSVPADSGLYACVTSSPSGSDTTYFSVNVSDALPSSAAAAAAAAAAAAAKETDNTKPNRMPVAPYWTSPEKMEKKLHAVPAAKTVKFKCPSSGTPNPTLRWLKNGKEFKPDHRIGGYKVRYATWSIIMDSVVPSDKGNYTCIVENEYGSINHTYQLDVVERSPHRPILQAGLPANKTVALGSNVEFMCKVYSDPQPHIQWLKHIEVNGSKIGPDNLPYVQILKTAGVNTTDKEMEVLHLRNVSFEDAGEYTCLAGNSIGLSHHSAWLTVLEALEERPAVMTSPLYLE

What was measured:
[1] = target: FGF1 (UniProt P05230 1-155); assay: SPR
[2] = target: FGF8b; assay: SPR

Chain of FGF1 (P05230 whole entry): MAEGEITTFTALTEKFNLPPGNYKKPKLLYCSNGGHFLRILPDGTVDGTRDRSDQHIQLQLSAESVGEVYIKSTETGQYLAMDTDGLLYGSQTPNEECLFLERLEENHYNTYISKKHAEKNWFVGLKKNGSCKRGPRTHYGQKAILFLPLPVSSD

Binder	Kd [1] [nM]	Kd [2] [nM]
B1	265	390
B2	268	329
